Data on 106 substances can be found in the supplement of paper PMC12042874.

± gives the uncertainty stated by the source.

A short description of this data set: amyloid nucleation score (Sup35N fusion, yeast selection) (log enrichment); library NNK1; higher = more nucleation; inactive = no reads after selection. In short, it runs like this:
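The nucleation score is the DiMSum log enrichment of output over input reads, centred on the mode score of non-aggregating sequences. Only sequences with 100 or more input reads were scored, using Illumina sequencing of input and output plasmid inserts. Psi-negative yeast expressing Sup35N fused to peptides of 20 random codons were induced 24 hours with 100 μM copper sulfate and grown 7 days at 30°C on medium lacking adenine and uracil.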
For the substance SNYDIWRPILSRWSDREGWV, the amyloid nucleation score was determined as 1.34 ± 0.36. In the case of TCIVSWWYSQDGSWEMCLQR, the amyloid nucleation score entry is “inactive”.

SHIHCFFDDTTNTKKLVWPW: the amyloid nucleation score is -0.563 ± 0.45. The same measure for FRRLMLWSCSV: -0.098 ± 1.3; for TSYGISLPAHP: 0.541 ± 0.75; for STSMDPLYYDYDRLYKIHDK: 0.484 ± 0.61.

For the substance SFGKVPFDLPKNFPRVSSVT, the amyloid nucleation score was -0.276 ± 0.33.

GLVSRLCRFHFMCIACNPKL displayed an amyloid nucleation score of 0.585 ± 0.43. The same measure for NYYCRDVI: 0.392 ± 0.3; for FGLADITWKLPPQGSTWRLT: -0.108 ± 0.95.

Consider AAAFSSGGKLFHAGCWRRMM, for which the amyloid nucleation score was -0.681 ± 1.6. The same measure for VMPRTES: 0.408 ± 0.9. The same measure for RNNCEMCLGFLS: 0.827 ± 0.37; for CWTCTSRVEWSPV: -0.374 ± 0.74. On to RDNKVPVR, for which the amyloid nucleation score is -0.537 ± 1.9.

TCKTCLR came in with an amyloid nucleation score of 0.858 ± 1.1. The same measure for LSNLDMVM: “inactive”.

Regarding SELRSWFL, the amyloid nucleation score was -0.109 ± 1.2.

TRPLQYIQ came in with an amyloid nucleation score of -0.045 ± 1.1. The same measure for RLFLKPAQWPNH: 0.562 ± 0.67. With FACSFQSNLLDKKYTSLVNL the figure was 0.051 ± 0.55.

On to ALYKSPLVNRSYAFLYSGA, for which the amyloid nucleation score was found to be 0.964 ± 0.69. With YSSGYLWFFIGTS the figure was -1.38 ± 1.7; with SNSLFNVSQSRSSKSLYQNA, 0.264 ± 0.97. The same measure for RCDSMSCTVYCEGNS: -1.03 ± 1.5; for CSFLELLWDVGRCSASQQCM: -0.943 ± 1.7; for LFSRFCTTVCKSTFRFDTR: 1.65 ± 0.76. With RSYSSLSR the figure was 0.792 ± 0.58; with RRLLTCGGSPYRQLR, -0.078 ± 0.98; with KYASVGASFVWC, 0.102 ± 0.34.

The substance VYLYMPPIDLL displayed an amyloid nucleation score of -0.021 ± 0.46. Substance MVTEDEERMANLSWHESGAY returned an amyloid nucleation score of -1.07 ± 0.74. With TCRTEKTNTELMG the figure was 1.78 ± 0.6; with FEAFFNGHSSREYLVISVRL, 0.153 ± 1.2. Substance MCDDHWFPAIYKRLVSSNKQ showed an amyloid nucleation score of 1.87 ± 0.57. With IYSARFIGVRPNYYCMDARP the figure was -0.85 ± 0.88; with ICQRSRAGSGSEVLT, -0.205 ± 0.49.

For YSSICGSKLLRSGGCRGVGH, the amyloid nucleation score was -0.083 ± 0.49. The same measure for ARVGFTLT: -0.265 ± 0.87; for NYYLVCCCKREQRLCTVGIT: 6.831 ± 0.064; for MMVRGMW: 1.34 ± 0.35. With FLTFKMN the entry was “inactive”; with DTPNISAFYLWNLRKRLMIF, -0.023 ± 0.31; with RSSMYKYV, 0.523 ± 0.26. The same measure for GFKGILTYGRGVLVHFYRPQ: 0.09 ± 0.35. Regarding TIFAWAKHGQSNTVSRLGGF, the amyloid nucleation score was determined as 0.118 ± 0.44. The same measure for MLTWCPTSEKVVLLFRSQRG: -0.383 ± 1.7. The same measure for TGYRSTYLNEVTPIRIMPHR: 0.905 ± 0.4; for KPTLGVILTTTTFTRSCLYY: -0.252 ± 0.73. Regarding RNCNTT, the amyloid nucleation score stood at 0.034 ± 0.61. With QGIAACSAGSLDYVYGRWKG the figure was 3.91 ± 0.09; with SPTTRTCNLVKIQGTNLSHR, 1.36 ± 0.66. In turn, VITSVGWMLVYENQFTNLHL yielded an amyloid nucleation score of 6.855 ± 0.048.

As for CSRVVWLVIRLLEMWIEPRA, the amyloid nucleation score worked out at 0.815 ± 0.73. With KKVGRHFDLCALDRTQSGCW the figure was -0.162 ± 0.39.

SDVVGGYWEDKTSSYGSRLM: the amyloid nucleation score turned out to be 0.423 ± 0.52.

The substance KLSGCMISKILFSPCWRD showed an amyloid nucleation score of 5.896 ± 0.058. On to AMLSIVSISAS, for which the amyloid nucleation score is 1.39 ± 0.69. The same measure for CGAVHGGGWSAIYLNGYLGW: 0.186 ± 0.95; for RCVKASLYDGEYMKLMDGVM: -0.407 ± 0.45. The same measure for CTAYYMLGGGRNLNHPLMWV: 0.497 ± 0.61; for LRIRYT: 2.42 ± 0.17; for IDVRI: -0.152 ± 0.43.

For RGSNAMDYSEVFCWMYNDLL, the amyloid nucleation score is 1.11 ± 0.58. Regarding DGLKFGFEINPAVRQ, the amyloid nucleation score was 1.11 ± 0.48. With RSELI the figure was -0.211 ± 0.36; with SFSVVCRLKRAFGLAVIVRR, 0.184 ± 1.2; with NDFLNSFLCPYYIIPDTGRI, -1.04 ± 0.44. In turn, QNDLERWAEGQASKMLG had an amyloid nucleation score of 0.433 ± 0.4. The same measure for SFRSLFVFYDN: “inactive”; for PSGVCSIVVFKCLRRVMSSL: 0.353 ± 0.35; for MQKYPIRGRR: 1.64 ± 0.23. The same measure for QRMACWYLDKLESLSKLACM: 0.612 ± 0.82.

Regarding TWNAFRRLWVTSDGYTRVLT, the amyloid nucleation score was determined as 1.23 ± 0.41.

SQLGMAWLSHGVDLPIRFYK showed an amyloid nucleation score of 0.241 ± 1.4.

Take NAFNHFYPTQPFLVQDCWRR: the amyloid nucleation score is 0.605 ± 0.72.

WAMREEVYSNSFSFMFALYW: the amyloid nucleation score stood at 0.651 ± 0.36.

IYFHLGGCI showed an amyloid nucleation score of -0.376 ± 0.42. The same measure for SMFYLSKFAVEFWRRMS: -0.097 ± 0.44.

In the case of LITNP, the amyloid nucleation score turned out to be 2.86 ± 0.12. VIQHIYAKDSNCSHLV: the amyloid nucleation score was -0.529 ± 0.52. For the substance ATMCVTLIWCYSSKQRMYKK, the amyloid nucleation score was 1.08 ± 0.15.

HVFSLKRPDGCRRR gave an amyloid nucleation score of 0.711 ± 0.38. For KCSSLLSHMWLCITLVTVLA, the amyloid nucleation score came out at 0.357 ± 0.57.

For the substance MLYKIRDQIYIRHGSFEG, the amyloid nucleation score worked out at 0.224 ± 0.28. With FCMVDYWVLVPCDEIGTDVV the figure was 0.116 ± 0.46; with VYWMFV, 0.369 ± 0.3; with LSLYESLSNPLVRSYRLFCR, 0.517 ± 0.45.

Substance PNSERREAMVIMFRW showed an amyloid nucleation score of 0.633 ± 0.35. With MCDIFAMLLIYQFDGKGTV, the amyloid nucleation score amounted to 0.151 ± 0.17. Substance SRIGTCGLNSCCLINNIVRD returned an amyloid nucleation score of 6.919 ± 0.045.

LAELWECDKSLKSPGAYWVL showed an amyloid nucleation score of 1.49 ± 0.73. VVLMLRDVEEFRQ: the amyloid nucleation score was -0.38 ± 0.21. With LGVIYLRLWFQSGGRQVLEG the figure was 0.089 ± 0.42; with RQDVT, 0.281 ± 0.61; with PDFIHFY, 0.182 ± 0.38. With MSFTSAY the figure was -0.238 ± 0.56; with TTLPREYYHRRVSVG, 0.373 ± 0.43. With KWVHEIRSSMVCVYLAGNSR the figure was 0.677 ± 0.79. In turn, YFYTSHFSLLTSTQFIYRLG yielded an amyloid nucleation score of 0.392 ± 0.33. The same measure for WDFFYLMSMLPRDEVGFL: 0.756 ± 0.46. In turn, FLYRSYVNIGLGGANISNLV yielded an amyloid nucleation score of 4.3 ± 0.12.

RFGGD gave an amyloid nucleation score of -0.388 ± 0.57. The same measure for IPDVEGQGG: 0.469 ± 0.72. Consider MCGNDWVYGDWIRSEIHGSS, for which the amyloid nucleation score was -0.403 ± 0.59.

On to VNKLLS, for which the amyloid nucleation score is -0.04 ± 0.28.
